Data on one variant can be found in FireProtDB (doi:10.1021/bi060848l).

The chains are these.
B1: Camphor 5-monooxygenase, P00183 (parent)
chain: MTTETIQSNANLAPLPPHVPEHLVFDFDMYNPSNLSAGVQEAWAVLQESNVPDLVWTRCNGGHWIATRGQLIREAYEDYRHFSSECPFIPREAGEAYDFIPTSMDPPEQRQFRALANQVVGMPVVDKLENRIQELACSLIESLRPQGQCNFTEDYAEPFPIRIFMLLAGLPEEDIPHLKYLTDQMTRPDGSMTFAEAKEALYDYLIPIIEQRRQKPGTDAISIVANGQVNGRPITSDEAKRMCGLLLVGGLDTVVNFLSFSMEFLAKSPEHRQELIERPERIPAACEELLRRFSLVADGRILTSDYEFHGVQLKKGDQILLPQMLSGLDERENACPMHVDFSRQKVSHTTFGHGSHLCLGQHLARREIIVTLKEWLTRIPDFSIAPGAQIQHKSGIVSGVQALPLVWDPATTKAV

In the data set the parent is B1. The note with it: Pseudomonas putida; pH 7.4; Thermal; DSC; Tris 50 mM; KCl 100 mM; reversible: Yes; structure 2CPP; whole UniProt chain shown.
In the case of T102V, the Tm is 63.5 °C and the “change of melting temperature, mutant - wild type (higher = more stable)” value is -1.8 °C.

As a reminder, the Tm is the temperature at which the thermal transition is half complete.
